T1: Rad51 (S. cerevisiae), P25454
T1 chain: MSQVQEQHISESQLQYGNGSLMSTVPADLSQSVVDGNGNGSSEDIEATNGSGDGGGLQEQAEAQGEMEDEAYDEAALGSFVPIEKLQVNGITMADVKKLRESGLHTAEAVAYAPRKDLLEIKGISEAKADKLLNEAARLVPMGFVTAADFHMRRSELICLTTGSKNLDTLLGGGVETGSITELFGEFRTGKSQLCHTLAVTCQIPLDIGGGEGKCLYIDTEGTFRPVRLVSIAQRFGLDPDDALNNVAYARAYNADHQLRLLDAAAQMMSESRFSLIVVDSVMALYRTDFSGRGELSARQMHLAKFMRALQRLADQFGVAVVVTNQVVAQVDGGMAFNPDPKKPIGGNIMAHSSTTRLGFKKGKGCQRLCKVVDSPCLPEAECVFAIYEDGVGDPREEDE

B1: Rad51 (natural protein, S. cerevisiae, UniProt P25454 1-400, looked up)
chain: T1 chain
notes: Oligomeric alone in solution; also called full-length unlabeled Rad51

11 molecules from PMC12218292 (Nature Communications, 2025) can be followed below.

In general, stoichiometry N refers to a count of units in the complex or per binding partner.

One experiment addresses Rad51 (in yeast cells) (UniProt P25454). Nature of the experiment: co-immunoprecipitation (co-IP). The settings on record: read off a plot.
As to Rad52-FLAG (from UniProt P06778) A319, the other: interaction loss by coIP (%) was found to be 99%.
For Rad52-FLAG (from UniProt P06778) L363, the other: interaction loss by coIP (%) came out at 27%.
With Rad52-FLAG (from UniProt P06778) P381, the other: interaction loss by coIP (%) was 79%.
Rad52-FLAG (from UniProt P06778) S355 registered an other: interaction loss by coIP (%) of 100%.
Regarding Rad52-FLAG (from UniProt P06778) S374, the other: interaction loss by coIP (%) came to 33%.
Rad52-FLAG (from UniProt P06778) T318: the other: interaction loss by coIP (%) came to 97%.
On to Rad52-FLAG (from UniProt P06778) V317, for which the other: interaction loss by coIP (%) was found to be 80%.
Rad52-FLAG (from UniProt P06778) V325 yielded an other: interaction loss by coIP (%) of 89%.
Rad52-FLAG (from UniProt P06778) V350 displayed an other: interaction loss by coIP (%) of 49%.
With Rad52-FLAG (from UniProt P06778) V358E, the other: interaction loss by coIP (%) amounted to 100%.

The target of another experiment is T2, Rad52 (295–408) (S. cerevisiae, UniProt P06778 295-408, uniform 15N labelling).
T2 construct: numbered from the first AUG codon in RAD52 mRNA (protein of 471 residues); Cloned in pETM30; also called Rad52C-ter; Rad52-Cter; source: E. coli BL21(DE3), purified (GSH-sepharose, TEV cleavage, Ni Sepharose, PD10)
T2 sequence (P06778 295-408): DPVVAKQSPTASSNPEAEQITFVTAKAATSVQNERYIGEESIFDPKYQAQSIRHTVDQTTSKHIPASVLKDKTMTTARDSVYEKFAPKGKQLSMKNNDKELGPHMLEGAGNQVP
Nature of the experiment: SEC-SAXS; Rad51 + Rad52 (295–408) 1:1; SWING beamline in SEC mode, Superdex 5/150 GL column; peak deconvolution; molecular weight from SAXS. The conditions noted are these: both partners purified.
Turning to B1, the “stoichiometry N” value stood at 1.

For a further experiment, the target named is T1, Rad51 (S. cerevisiae), P25454. The experiment is described as above. The conditions noted are these: remark: other sources report otherwise.
Regarding B1, the stoichiometry N turned out to be 4.
